Source: the RNAGym collection of RNA variant scans (doi:10.1073/pnas.2313332121)
Fewer inactive variants are shown than the library holds.

B1: TPR 5TU (parent)
chain: GGAUCUUCUCGAUCUAACAAAAAAGACAAAUCUGCCACAAAGCUUGAGAGCAUCUUCGGAUGCAGAGGCGGCAGCCUUCGGUGGCGCGAUAGCGCCAACGUUCUCAACUAUGACACGCAAAACGCGUGCUCCGUUGAAUGGAGUUUAUCAUG

Variants of: B1
Experiment: polymerase ribozyme fitness, log enrichment relative to wild type (log ratio); higher = more active; in vitro selection for triplet polymerase activity
Method in brief: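 For each subunit of a heterodimeric triplet polymerase ribozyme, a mutant library was built by PCR and transcribed, then taken through a single in vitro selection round in triplicate. Selection involved annealing to a biotinylated primer, the partner subunit and triplets, incubation frozen at −7 °C, gel excision of extended constructs, capture on streptavidin beads and RT-PCR. Genotypes were retained after Illumina sequencing of inputs and outputs only with ≥10 input reads and ≥1 read in each output. Fitness is defined as the logarithm of a genotype's enrichment relative to wild-type enrichment, using inverse-variance-weighted averages across replicates, with the logarithm taken to base 2.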

Compared with C14U G50C A89U C93G G143U, A17C G34A C96G A121G A122C U134C is higher in “polymerase ribozyme fitness (log ratio)” value: at most -4.2 for the first, -1.47 for the second.

Compared with A17C C38U A41C A60C, A16G C27G C54G G83A G86U A97U C105U U146A is lower in “polymerase ribozyme fitness (log ratio)” value: -1.39 for the first, at most -4.2 for the second.

C14U G83U C95U C116U and A17C C18G A40U G86U are within 0.2 log units of each other in “polymerase ribozyme fitness (log ratio)” value: -1.49 for the first, -1.43 for the second.

First: A17C G81U C85A C95U C105G
Second: A16U A24U U33A C35U C87G
The “polymerase ribozyme fitness (log ratio)” value of the first is higher: -1.64 for the first, -4.15 for the second.

Going from A16C U31A U104G A142C to A16C C79A A91U C116A C149A, the “polymerase ribozyme fitness (log ratio)” value falls from -2.77 to at most -4.2.

Compared with A16U A49G, A16C C38U G80U C96G A142C U148G is lower in “polymerase ribozyme fitness (log ratio)” value: -1.93 for the first, at most -4.2 for the second.

Compared with U15A A29C C35A G59A C76U G143C, A16U G84A is higher in “polymerase ribozyme fitness (log ratio)” value: at most -4.2 for the first, -2.41 for the second.

A16U U61A C93U G140A G143U U148G and C14U A107U G117A C118A A142G cannot be ordered by “polymerase ribozyme fitness (log ratio)” value: at most -4.2 for the first, at most -4.2 for the second.

Going from A16U A37U A52C G112U U139A to A17C C93U, the “polymerase ribozyme fitness (log ratio)” value rises from at most -4.2 to -1.02.

Compared with A16C C51U C87G C118G G133U, U15C A20U C54U G86U is higher in “polymerase ribozyme fitness (log ratio)” value: at most -4.2 for the first, -1.77 for the second.

C14U A66C U78G C95G C108U and U15G A24C G59C G68C C79G G81U C95A C132U cannot be ordered by “polymerase ribozyme fitness (log ratio)” value: at most -4.2 for the first, at most -4.2 for the second.

Compared with C14U C57A, C14U G25C A26C G42A A60U G84A C108U G152A is lower in “polymerase ribozyme fitness (log ratio)” value: -0.738 for the first, at most -4.2 for the second.

A17C U44G U61G and A17C C27U G71A C93G A113C U134G U151G cannot be ordered by “polymerase ribozyme fitness (log ratio)” value: at most -4.2 for the first, at most -4.2 for the second.

First: C14U U15A C93U U101A
Second: A16G A49U G62A G92A C96A
The “polymerase ribozyme fitness (log ratio)” value of the first is higher: -2.56 for the first, at most -4.2 for the second.

First: A16C C87U
Second: A16U C35A G74A G80C G83U G86A A97U
The “polymerase ribozyme fitness (log ratio)” value of the first is higher: -1.85 for the first, at most -4.2 for the second.

Compared with A16U C87U, U15C A22C C51U G81U C85U G94A A122G is higher in “polymerase ribozyme fitness (log ratio)” value: -2.65 for the first, -1.17 for the second.

First: C14U G83C A106C
Second: A16G C18U U31G C35A C43A C95G C103U
The “polymerase ribozyme fitness (log ratio)” value of the first is higher: -2.96 for the first, at most -4.2 for the second.

Going from A16C C27A A30U C38G G48U G86U A110U C116G G141A to A16G A28C C36A U44A G48C A49C C76G U77C A91U C103G, the “polymerase ribozyme fitness (log ratio)” value falls from -4.02 to at most -4.2.

C14U G42A C87U G136A and A17C C32A U53A G67A G74C U101A cannot be ordered by “polymerase ribozyme fitness (log ratio)” value: at most -4.2 for the first, at most -4.2 for the second.

A16U A47C U53A C85G C131A U134A G140U and A17C A26U C75A G84A G141U cannot be ordered by “polymerase ribozyme fitness (log ratio)” value: at most -4.2 for the first, at most -4.2 for the second.

First: U15G A24U G25C C38G C54G C76G G81C C93A C132U
Second: U15G A47C
The “polymerase ribozyme fitness (log ratio)” value of the first is lower: at most -4.2 for the first, -0.922 for the second.

Compared with A16G A23U A29G A37U C43U C79G C99A A122G, A16G G83A is higher in “polymerase ribozyme fitness (log ratio)” value: at most -4.2 for the first, -0.814 for the second.

A16G A22U A91U C93U U102G G128U and A16C A17G C76G C96A A107G cannot be ordered by “polymerase ribozyme fitness (log ratio)” value: at most -4.2 for the first, at most -4.2 for the second.

First: U15A C43U U53G C76A U102G A119G G128U U135G A142U
Second: A16G A98U
The “polymerase ribozyme fitness (log ratio)” value of the first is lower: at most -4.2 for the first, -1.65 for the second.

A16G C76U C79A G83U G152U and A16G C43U C51U G80C G117A A142C cannot be ordered by “polymerase ribozyme fitness (log ratio)” value: at most -4.2 for the first, at most -4.2 for the second.

C14U U55A C85G C93U C96A U102A A115G and A16U A28U C54U G117C cannot be ordered by “polymerase ribozyme fitness (log ratio)” value: at most -4.2 for the first, at most -4.2 for the second.

Compared with U15C A21U, A16G G34C C35A C54A C93A is lower in “polymerase ribozyme fitness (log ratio)” value: 1.65 for the first, at most -4.2 for the second.

Going from U15G C36G U111G G124A G141C A150U to A16U A20U G58C G86A, the “polymerase ribozyme fitness (log ratio)” value rises from at most -4.2 to -3.79.

Compared with A16C C99G C125A, C14U A91G is lower in “polymerase ribozyme fitness (log ratio)” value: -2.16 for the first, -3.98 for the second.

A17C A19G C51U G59U C75A A91U C116G A121C and C14U G46A A47C C57A G65C G86U C96U cannot be ordered by “polymerase ribozyme fitness (log ratio)” value: at most -4.2 for the first, at most -4.2 for the second.

Going from A16U A49C G50A C54G C96A U101C U135G to A17C C95U C96U G136A U144C A147U, the “polymerase ribozyme fitness (log ratio)” value rises from at most -4.2 to -0.941.

Compared with A16U A22C G59A C118A, A16C G83U is higher in “polymerase ribozyme fitness (log ratio)” value: -3.09 for the first, -1.56 for the second.

Compared with C14U G88A, A17C A60U G81U G83U G86U C93A is higher in “polymerase ribozyme fitness (log ratio)” value: -4.2 for the first, -0.433 for the second.

Compared with C14U G59U, A16G G34U A52U A60G C72G G88U A91U G140C is lower in “polymerase ribozyme fitness (log ratio)” value: -1.23 for the first, at most -4.2 for the second.

Going from A16G G86U to A16G G86U C132U U135G, the “polymerase ribozyme fitness (log ratio)” value falls from -2.72 to at most -4.2.

First: C14U C54U
Second: C14U A41C G50U A52C G84A U90G A91C C116U G140A
The “polymerase ribozyme fitness (log ratio)” value of the first is higher: -1.87 for the first, at most -4.2 for the second.

Compared with U15G A21C G83U A89G C96G U127A, A16G A30U U44A G81A C95U C125G is lower in “polymerase ribozyme fitness (log ratio)” value: -4.13 for the first, at most -4.2 for the second.

First: U15G A17U
Second: A16C A89G
The “polymerase ribozyme fitness (log ratio)” value of the first is higher: -0.367 for the first, -2.25 for the second.

Compared with A16G A26C C32U A47C U53A A91G C96G, A17C U31C A47C U55A C76U G84U is higher in “polymerase ribozyme fitness (log ratio)” value: at most -4.2 for the first, -3.49 for the second.

First: C14U U55A
Second: C14U G25C C38G G67A C69A C96U A121G A147C
The “polymerase ribozyme fitness (log ratio)” value of the first is higher: -1.33 for the first, at most -4.2 for the second.

First: U15C C35U U56A A89C
Second: A16C C72U U82A C85U A91U
The “polymerase ribozyme fitness (log ratio)” value of the first is higher: 0.662 for the first, at most -4.2 for the second.

Compared with A16U A64U A66C C93G, A16U C18A A21C A73U G92U is higher in “polymerase ribozyme fitness (log ratio)” value: at most -4.2 for the first, -2.75 for the second.
